Test results taken from patent US20140087995A1 (published 2014).
Numbered stars: 1 amine (or outer) side, 2 acyl side, 3 side chain; on linkers, the order of the positions; unused ones are H or OH. Bridge positions count the residues as written; N and C are the ends. Side chains are listed from the residue outwards. Ends that are not written are not given here. * marks the point of attachment. C20 diacid = O=C(O)CCCCCCCCCCCCCCCCCCC(=O)*; γGlu = O=C(O)[C@H](CCC(=O)[*:2])N[*:1]; AEEA = NCCOCCOCC(=O)O

T1: human amylin receptor (human calcitonin receptor co-expressed with RAMP-3; amylin 3(a) receptor) (human, UniProt P30988 25-474; O60896 24-148, limits assumed)
T1 construct: whole, on cells; Used as cell membranes prepared from Amylin 3(a)/CRE-luc BHK cells (Assay V), not as intact cells; also called hAmylin-R; hAmylinR
T1 sequence (looked up) 1: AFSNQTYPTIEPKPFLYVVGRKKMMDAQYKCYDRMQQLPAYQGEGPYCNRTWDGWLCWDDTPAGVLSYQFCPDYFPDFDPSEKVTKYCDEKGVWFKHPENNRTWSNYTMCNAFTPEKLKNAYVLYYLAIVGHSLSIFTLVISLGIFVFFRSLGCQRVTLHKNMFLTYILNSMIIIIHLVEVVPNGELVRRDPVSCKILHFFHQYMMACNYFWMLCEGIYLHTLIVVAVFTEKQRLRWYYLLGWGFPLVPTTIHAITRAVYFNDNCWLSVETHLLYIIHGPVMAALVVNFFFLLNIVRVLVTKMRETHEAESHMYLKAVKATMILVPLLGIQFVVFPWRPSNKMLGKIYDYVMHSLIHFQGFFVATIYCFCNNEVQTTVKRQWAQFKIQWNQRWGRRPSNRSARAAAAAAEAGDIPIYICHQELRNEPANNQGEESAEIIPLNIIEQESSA
T1 sequence (looked up) 2: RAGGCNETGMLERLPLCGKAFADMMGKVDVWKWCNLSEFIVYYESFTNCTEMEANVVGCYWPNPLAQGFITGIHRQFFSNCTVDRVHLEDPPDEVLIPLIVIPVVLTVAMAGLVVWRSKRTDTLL

T2: human calcitonin receptor (human, UniProt P30988 25-474)
T2 construct: whole, on cells; Used as cell membranes prepared from the transfected BHK cells (Assay VII), not as intact cells; also called hCTR; hCT
T2 sequence (looked up): T1 sequence (looked up) 1

B1: N^ε1-[2-[2-[2-[[(4S)-4-carboxy-4-(19-carboxynonadecanoylamino)butanoyl]amino]ethoxy]ethoxy]acetyl]-[Arg17,Pro21,Pro27,Pro34]-h-amylin (peptide)
peptide: K([AEEA-γGlu-C20 diacid])CNTATCATQRLANFLRHSSPNFGAIPSSTNVGPNTY-NH2
modifications: disulfide 2-7; N-terminus assumed
SMILES: CC[C@H](C)[C@H](NC(=O)[C@H](C)NC(=O)CNC(=O)[C@H](Cc1ccccc1)NC(=O)[C@H](CC(N)=O)NC(=O)[C@@H]1CCCN1C(=O)[C@H](CO)NC(=O)[C@H](CO)NC(=O)[C@H](Cc1c[nH]cn1)NC(=O)[C@H](CCCNC(=N)N)NC(=O)[C@H](CC(C)C)NC(=O)[C@H](Cc1ccccc1)NC(=O)[C@H](CC(N)=O)NC(=O)[C@H](C)NC(=O)[C@H](CC(C)C)NC(=O)[C@H](CCCNC(=N)N)NC(=O)[C@H](CCC(N)=O)NC(=O)[C@@H](NC(=O)[C@H](C)NC(=O)[C@@H]1CSSC[C@H](NC(=O)[C@@H](N)CCCCNC(=O)COCCOCCNC(=O)CC[C@H](NC(=O)CCCCCCCCCCCCCCCCCCC(=O)O)C(=O)O)C(=O)N[C@@H](CC(N)=O)C(=O)N[C@@H]([C@@H](C)O)C(=O)N[C@@H](C)C(=O)N[C@@H]([C@@H](C)O)C(=O)N1)[C@@H](C)O)C(=O)N1CCC[C@H]1C(=O)N[C@@H](CO)C(=O)N[C@@H](CO)C(=O)N[C@H](C(=O)N[C@@H](CC(N)=O)C(=O)N[C@H](C(=O)NCC(=O)N1CCC[C@H]1C(=O)N[C@@H](CC(N)=O)C(=O)N[C@H](C(=O)N[C@@H](Cc1ccc(O)cc1)C(N)=O)[C@@H](C)O)C(C)C)[C@@H](C)O
notes: also called compound 50
B2: N^ε1-[2-[2-[2-[[(4S)-4-carboxy-4-(19-carboxynonadecanoylamino)butanoyl]amino]ethoxy]ethoxy]acetyl]-[His14,Arg17,Pro21,Pro27,Pro34]-h-amylin (peptide)
peptide: K([AEEA-γGlu-C20 diacid])CNTATCATQRLAHFLRHSSPNFGAIPSSTNVGPNTY-NH2
modifications: disulfide 2-7; N-terminus assumed
SMILES: CC[C@H](C)[C@H](NC(=O)[C@H](C)NC(=O)CNC(=O)[C@H](Cc1ccccc1)NC(=O)[C@H](CC(N)=O)NC(=O)[C@@H]1CCCN1C(=O)[C@H](CO)NC(=O)[C@H](CO)NC(=O)[C@H](Cc1c[nH]cn1)NC(=O)[C@H](CCCNC(=N)N)NC(=O)[C@H](CC(C)C)NC(=O)[C@H](Cc1ccccc1)NC(=O)[C@H](Cc1c[nH]cn1)NC(=O)[C@H](C)NC(=O)[C@H](CC(C)C)NC(=O)[C@H](CCCNC(=N)N)NC(=O)[C@H](CCC(N)=O)NC(=O)[C@@H](NC(=O)[C@H](C)NC(=O)[C@@H]1CSSC[C@H](NC(=O)[C@@H](N)CCCCNC(=O)COCCOCCNC(=O)CC[C@H](NC(=O)CCCCCCCCCCCCCCCCCCC(=O)O)C(=O)O)C(=O)N[C@@H](CC(N)=O)C(=O)N[C@@H]([C@@H](C)O)C(=O)N[C@@H](C)C(=O)N[C@@H]([C@@H](C)O)C(=O)N1)[C@@H](C)O)C(=O)N1CCC[C@H]1C(=O)N[C@@H](CO)C(=O)N[C@@H](CO)C(=O)N[C@H](C(=O)N[C@@H](CC(N)=O)C(=O)N[C@H](C(=O)NCC(=O)N1CCC[C@H]1C(=O)N[C@@H](CC(N)=O)C(=O)N[C@H](C(=O)N[C@@H](Cc1ccc(O)cc1)C(N)=O)[C@@H](C)O)C(C)C)[C@@H](C)O
notes: also called compound 68
B3: N^ε1-[(4S)-4-carboxy-4-(19-carboxynonadecanoylamino)butanoyl]-[Arg14,Arg17,Pro21,Pro27,Pro34]-h-amylin (peptide)
peptide: K([γGlu-C20 diacid])CNTATCATQRLARFLRHSSPNFGAIPSSTNVGPNTY-NH2
modifications: disulfide 2-7; N-terminus assumed
SMILES: CC[C@H](C)[C@H](NC(=O)[C@H](C)NC(=O)CNC(=O)[C@H](Cc1ccccc1)NC(=O)[C@H](CC(N)=O)NC(=O)[C@@H]1CCCN1C(=O)[C@H](CO)NC(=O)[C@H](CO)NC(=O)[C@H](Cc1c[nH]cn1)NC(=O)[C@H](CCCNC(=N)N)NC(=O)[C@H](CC(C)C)NC(=O)[C@H](Cc1ccccc1)NC(=O)[C@H](CCCNC(=N)N)NC(=O)[C@H](C)NC(=O)[C@H](CC(C)C)NC(=O)[C@H](CCCNC(=N)N)NC(=O)[C@H](CCC(N)=O)NC(=O)[C@@H](NC(=O)[C@H](C)NC(=O)[C@@H]1CSSC[C@H](NC(=O)[C@@H](N)CCCCNC(=O)CC[C@H](NC(=O)CCCCCCCCCCCCCCCCCCC(=O)O)C(=O)O)C(=O)N[C@@H](CC(N)=O)C(=O)N[C@@H]([C@@H](C)O)C(=O)N[C@@H](C)C(=O)N[C@@H]([C@@H](C)O)C(=O)N1)[C@@H](C)O)C(=O)N1CCC[C@H]1C(=O)N[C@@H](CO)C(=O)N[C@@H](CO)C(=O)N[C@H](C(=O)N[C@@H](CC(N)=O)C(=O)N[C@H](C(=O)NCC(=O)N1CCC[C@H]1C(=O)N[C@@H](CC(N)=O)C(=O)N[C@H](C(=O)N[C@@H](Cc1ccc(O)cc1)C(N)=O)[C@@H](C)O)C(C)C)[C@@H](C)O
notes: also called compound 65
B4: N^ε1-[(4S)-4-carboxy-4-(19-carboxynonadecanoylamino)butanoyl]-[Arg14,Arg17,Pro21,Pro27,Pro31]-h-amylin (peptide)
peptide: K([γGlu-C20 diacid])CNTATCATQRLARFLRHSSPNFGAIPSSTPVGSNTY-NH2
modifications: disulfide 2-7; N-terminus assumed
SMILES: CC[C@H](C)[C@H](NC(=O)[C@H](C)NC(=O)CNC(=O)[C@H](Cc1ccccc1)NC(=O)[C@H](CC(N)=O)NC(=O)[C@@H]1CCCN1C(=O)[C@H](CO)NC(=O)[C@H](CO)NC(=O)[C@H](Cc1c[nH]cn1)NC(=O)[C@H](CCCNC(=N)N)NC(=O)[C@H](CC(C)C)NC(=O)[C@H](Cc1ccccc1)NC(=O)[C@H](CCCNC(=N)N)NC(=O)[C@H](C)NC(=O)[C@H](CC(C)C)NC(=O)[C@H](CCCNC(=N)N)NC(=O)[C@H](CCC(N)=O)NC(=O)[C@@H](NC(=O)[C@H](C)NC(=O)[C@@H]1CSSC[C@H](NC(=O)[C@@H](N)CCCCNC(=O)CC[C@H](NC(=O)CCCCCCCCCCCCCCCCCCC(=O)O)C(=O)O)C(=O)N[C@@H](CC(N)=O)C(=O)N[C@@H]([C@@H](C)O)C(=O)N[C@@H](C)C(=O)N[C@@H]([C@@H](C)O)C(=O)N1)[C@@H](C)O)C(=O)N1CCC[C@H]1C(=O)N[C@@H](CO)C(=O)N[C@@H](CO)C(=O)N[C@H](C(=O)N1CCC[C@H]1C(=O)N[C@H](C(=O)NCC(=O)N[C@@H](CO)C(=O)N[C@@H](CC(N)=O)C(=O)N[C@H](C(=O)N[C@@H](Cc1ccc(O)cc1)C(N)=O)[C@@H](C)O)C(C)C)[C@@H](C)O
notes: also called compound 63
B5: N^ε1-[2-[2-[2-[[(4S)-4-carboxy-4-(19-carboxynonadecanoylamino)butanoyl]amino]ethoxy]ethoxy]acetyl]-[His14,Arg17,Pro21,Pro27,Pro31]-h-amylin (peptide)
peptide: K([AEEA-γGlu-C20 diacid])CNTATCATQRLAHFLRHSSPNFGAIPSSTPVGSNTY-NH2
modifications: disulfide 2-7; N-terminus assumed
SMILES: CC[C@H](C)[C@H](NC(=O)[C@H](C)NC(=O)CNC(=O)[C@H](Cc1ccccc1)NC(=O)[C@H](CC(N)=O)NC(=O)[C@@H]1CCCN1C(=O)[C@H](CO)NC(=O)[C@H](CO)NC(=O)[C@H](Cc1c[nH]cn1)NC(=O)[C@H](CCCNC(=N)N)NC(=O)[C@H](CC(C)C)NC(=O)[C@H](Cc1ccccc1)NC(=O)[C@H](Cc1c[nH]cn1)NC(=O)[C@H](C)NC(=O)[C@H](CC(C)C)NC(=O)[C@H](CCCNC(=N)N)NC(=O)[C@H](CCC(N)=O)NC(=O)[C@@H](NC(=O)[C@H](C)NC(=O)[C@@H]1CSSC[C@H](NC(=O)[C@@H](N)CCCCNC(=O)COCCOCCNC(=O)CC[C@H](NC(=O)CCCCCCCCCCCCCCCCCCC(=O)O)C(=O)O)C(=O)N[C@@H](CC(N)=O)C(=O)N[C@@H]([C@@H](C)O)C(=O)N[C@@H](C)C(=O)N[C@@H]([C@@H](C)O)C(=O)N1)[C@@H](C)O)C(=O)N1CCC[C@H]1C(=O)N[C@@H](CO)C(=O)N[C@@H](CO)C(=O)N[C@H](C(=O)N1CCC[C@H]1C(=O)N[C@H](C(=O)NCC(=O)N[C@@H](CO)C(=O)N[C@@H](CC(N)=O)C(=O)N[C@H](C(=O)N[C@@H](Cc1ccc(O)cc1)C(N)=O)[C@@H](C)O)C(C)C)[C@@H](C)O
notes: also called compound 61

target: T1, human amylin receptor (human calcitonin …); assay: ratio of hCTR binding IC50 to hAmylin-R binding IC50 (reference: human calcitonin receptor)
Experimental: The resulting pellet was resuspended, homogenized and centrifuged (20.000 rpm, 15 min) in a buffer containing 20 mM Na-HEPES and 0.1 mM EDTA (pH 7.4, buffer 2). The resulting pellet was resuspended in buffer 2 and protein concentration was measured (BCA protein Assay, Pierce). The homogenate was kept cold during the whole procedure. The membranes were kept at −80° C. until use. The assay was performed in a 384 well Optiplate (PerkinElmer) in a total volume of 40 ul. Membranes were mixed with SPA beads. Final concentration of membranes 35 ng/μL final and SPA beads was 0.05 mg/well. Test-compounds were dissolved in DMSO and further diluted in assay buffer (50 mM Hepes, pH 7.4, 1 mM CaCl2, 5 mM MgCl₂, 0.1% OA and 0.02% Tween20). […] The final mixture was incubated with shaking at 400 rpm for 120 min at 25° C. prior to centrifugation (1500 rpm, 10 min). Samples were analyzed on TopCounter™ (Packard). The IC₅₀ was calculated using (one site binding competition analysis) GraphPad Prism5 as a measure of receptor affinity.
Membranes were prepared in the following way; the cells were rinsed with PBS and incubated with Versene for approximately 5 min before harvesting. The cells were flushed with PBS and the cell-suspension was centrifuged for 5 min at 1000 rpm. Cells were homogenized (Ultrathurrax) in a buffer containing 20 mM Na-HEPES and 10 mM EDTA (pH 7.4) and centrifuged at 20.000 rpm for 15 min. The resulting pellet was resuspended, homogenized and centrifuged (20.000 rpm, 15 min) in a buffer containing 20 mM Na-HEPES and 0.1 mM EDTA (pH 7.4, buffer 2). The resulting pellet was resuspended in buffer 2 and protein concentration was measured (BCA protein Assay, Pierce). The homogenate was kept cold during the whole procedure. The membranes were kept at −80° C. until use. Assay was performed in a 384 well Optiplate (PerkinElmer) in a total volume of 40 ul. Membranes were mixed with SPA beads.

| Ratio hCT/hAmylin binding | Binder |
| --- | --- |
| 36 | B1 |
| 64.4 | B2 |
| 82.4 | B3 |
| 157 | B4 |
| 66.7 | B5 |

target: T2, human calcitonin receptor; assay: SPA competition against 125I-calcitonin, membranes with human calcitonin receptor (Assay VII)
How it was run: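 BHK hCTR membranes 35 ng/μL + SPA beads 0.05 mg/well; buffer 50 mM Hepes pH 7.4, 1 mM CaCl2, 5 mM MgCl₂, 0.1% OA, 0.02% Tween20. 120 min, 25° C., shaking. Scintillation count; IC50 by one-site binding competition.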

| IC50 [nM] | Binder |
| --- | --- |
| 1.38 | B1 |
| 5.66 | B2 |
| 53.5 | B3 |
| 130 | B4 |
| 8.11 | B5 |
